Measurements published in US20260265385A1 (ANAPTYSBIO, published 2026).
Residue numbers refer to the chain shown, from its start.

Columns and labels:
[1] = target: T1, recombinant human IL-2Rβ (extracellular domain, Ala1-Thr215) (human, UniProt P14784 27-240); assay: SPR
T1 construct: extracellular domain; Analyte in SPR; Ala1-Thr215 is counted on the mature protein; also called human LL-2Rβ; Human IL-2RB
T1 sequence (looked up): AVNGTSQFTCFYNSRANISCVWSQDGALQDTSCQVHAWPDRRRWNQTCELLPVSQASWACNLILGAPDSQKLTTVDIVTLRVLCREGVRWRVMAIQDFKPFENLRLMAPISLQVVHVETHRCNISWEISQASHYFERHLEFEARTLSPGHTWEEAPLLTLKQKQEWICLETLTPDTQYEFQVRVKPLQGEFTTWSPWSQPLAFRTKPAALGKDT

[2] = target: T2, recombinant cynomolgus IL-2Rβ (extracellular domain, Ala1-Thr215) (cynomolgus, UniProt Q38J85 27-240); assay: SPR
T2 construct: extracellular domain; Analyte in SPR; also called cynomolgus LL-2Rβ; Cyno IL-2RB
T2 sequence (looked up): T1 sequence (looked up) with Q7R, A66T, T74A, L83M, V92M, E127K, L158M

[3] = target: T1, recombinant human IL-2Rβ (extracellular …); assay: SPR, antibody captured on Protein A chip
In short: (§1)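 Antibodies captured on a Protein A chip (0.5 μg/mL, 60 s), then exposed to IL-2Rβ extracellular domain (Ala1-Thr215) at about 0.4–11 nM; 300 s association, 1200 s dissociation. On- and off-rates and KD from a global 1:1 binding fit.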

[4] = target: T2, recombinant cynomolgus IL-2Rβ …; assay: SPR, antibody captured on Protein A chip
In short: as §1

[5] = target: T3, human IL-2Rβ (CD122), full-length, on cells (human, UniProt P14784 27-551); assay: flow cytometry on CHO-K1 cells expressing human IL-2Rβ and IL-2Rγ
T3 construct: whole, on cells; also called human IL-2Rβγ; human IL-2βγ
T3 sequence (looked up): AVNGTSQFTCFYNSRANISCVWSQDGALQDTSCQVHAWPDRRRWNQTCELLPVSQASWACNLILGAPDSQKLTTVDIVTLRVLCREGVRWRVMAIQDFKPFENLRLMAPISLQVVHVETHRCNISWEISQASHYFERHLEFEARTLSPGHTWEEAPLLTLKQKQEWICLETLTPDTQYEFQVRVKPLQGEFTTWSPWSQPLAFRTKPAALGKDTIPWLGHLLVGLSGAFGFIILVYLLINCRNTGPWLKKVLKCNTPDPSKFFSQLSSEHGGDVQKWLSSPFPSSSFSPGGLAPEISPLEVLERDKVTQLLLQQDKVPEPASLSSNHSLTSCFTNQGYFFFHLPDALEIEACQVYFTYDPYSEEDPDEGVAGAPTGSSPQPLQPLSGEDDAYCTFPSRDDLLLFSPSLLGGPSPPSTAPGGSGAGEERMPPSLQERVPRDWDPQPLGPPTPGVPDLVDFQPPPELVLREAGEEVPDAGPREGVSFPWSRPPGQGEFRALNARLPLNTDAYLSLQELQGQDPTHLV
Experimental: (§2) CHO-K1 cells stably expressing full-length human or cynomolgus IL-2Rβ and IL-2Rγ cultured in the log phase of growth were harvested with Accutase solution, resuspended in FACS buffer, and plated at 100,000 cells/well in a 96-well plate. The concentrations of antibodies indicated in FIGS. 1 and 2 starting at 100 nM and diluted 1:3 were incubated with the cells for 45 minutes on a plate shaker at 4° C. After washing, the cells were incubated with goat-anti-human kappa DyL650 secondary antibody for 20 minutes on a plate shaker at 4° C. Cells were washed again and analyzed on a FACSArray flow cytometer. Data were analyzed using Novoexpress and GraphPad Prism software. Table 3 lists anti-CD122 chimeric antibody binding characteristics: affinity to human and cyno CD122 protein (KD, measured by SPR assay), ability to block IL-2 (SPR assay), and binding EC50 to cell-expressed human and cyno CD122/CD132 (cell-based receptor binding assay).

[6] = target: T4, cynomolgus IL-2Rβ (CD122), full-length, on cells (cynomolgus, UniProt Q38J85 27-551); assay: flow cytometry on CHO-K1 cells expressing cynomolgus IL-2Rβ and IL-2Rγ
T4 construct: whole, on cells; Co-expressed with full-length cynomolgus IL-2Rγ on CHO-K1 cells; also called cynomolgus IL-2Rβγ; cyno IL-2βγ
T4 sequence (looked up): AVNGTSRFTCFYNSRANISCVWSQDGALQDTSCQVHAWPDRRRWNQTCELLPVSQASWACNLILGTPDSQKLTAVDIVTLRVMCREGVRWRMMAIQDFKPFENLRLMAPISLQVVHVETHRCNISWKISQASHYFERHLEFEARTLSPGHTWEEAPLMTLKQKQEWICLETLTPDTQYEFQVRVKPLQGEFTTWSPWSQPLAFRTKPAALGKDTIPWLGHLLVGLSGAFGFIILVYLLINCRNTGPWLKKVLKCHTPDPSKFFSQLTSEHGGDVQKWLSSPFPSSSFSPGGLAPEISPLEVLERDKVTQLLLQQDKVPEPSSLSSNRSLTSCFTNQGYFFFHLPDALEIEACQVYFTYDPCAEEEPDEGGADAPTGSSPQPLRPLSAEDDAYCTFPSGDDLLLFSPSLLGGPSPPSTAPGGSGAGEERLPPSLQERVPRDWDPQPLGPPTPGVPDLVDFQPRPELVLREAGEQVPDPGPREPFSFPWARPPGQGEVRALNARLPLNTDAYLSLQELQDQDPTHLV
Experimental: as §2

- Kd [1]: ~0.34 nM
- Kd [2]: ~0.26 nM
- Kd [3]: 0.34 nM
- Kd [4]: 0.26 nM
- EC50 [5]: 0.142 nM
- EC50 [6]: 0.147 nM
B1: APE12383 (antibody, V domains shown)
VH: QVQLQQSGAELMKPGASVKISCKSTGYTFSRYWIEWVKQRPGHGLEWIGEILPGSGSINHNEKFQGKATFTADTSSNTVYMQLSSLTSEDSAVYFCTRHYGSFDYWGQGTTLTVSS
VL: EIVMTQSPKFMSTSVGDRVSVTCKASQNVGTDVAWYQQKPGQSPKALIYSASYRYNGVPDRFTGSGSGTDFTLTISNVQSEDLAEYFCHQYSSYPFTFGSGTKLEIKR
notes: M6-p1625 series; human kappa detected by the secondary antibody; also called APE 12383.03; M6-p1625
